These results are taken from publication PMC2172719.

For this assay, the target named is Ufd1–Npl4ΔZF complex (UniProt Q9ES53). The assay is described as follows: co-IP.

“polyubiquitin chains with lysine 63 linkages (from UniProt P0CG53 1-76)” gave a percent of the input material bound of less than 5%.
